According to patent US8816055:
Positions count from the first letter of the chain named. One block for each binder: values may come before it.

Target: human plasma kallikrein (active form) (human), P03952
Assay: Ki,app on full length pKal, enzyme inhibition
Settings: remark: other sources report otherwise

Chain of human plasma kallikrein (active form) (human), P03952 (P03952 20-390, chain 1 of 2): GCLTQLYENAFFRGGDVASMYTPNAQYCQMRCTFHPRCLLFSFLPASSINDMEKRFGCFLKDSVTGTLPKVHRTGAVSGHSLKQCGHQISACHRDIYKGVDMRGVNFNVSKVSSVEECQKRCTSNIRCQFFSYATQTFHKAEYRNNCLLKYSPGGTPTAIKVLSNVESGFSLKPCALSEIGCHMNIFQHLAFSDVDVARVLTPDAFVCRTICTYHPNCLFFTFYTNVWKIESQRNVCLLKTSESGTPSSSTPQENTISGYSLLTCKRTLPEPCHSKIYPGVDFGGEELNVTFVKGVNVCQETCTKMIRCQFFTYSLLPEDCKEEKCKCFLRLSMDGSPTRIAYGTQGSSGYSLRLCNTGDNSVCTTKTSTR
Chain of human plasma kallikrein (active form) (human), P03952 (P03952 391-638, chain 2 of 2): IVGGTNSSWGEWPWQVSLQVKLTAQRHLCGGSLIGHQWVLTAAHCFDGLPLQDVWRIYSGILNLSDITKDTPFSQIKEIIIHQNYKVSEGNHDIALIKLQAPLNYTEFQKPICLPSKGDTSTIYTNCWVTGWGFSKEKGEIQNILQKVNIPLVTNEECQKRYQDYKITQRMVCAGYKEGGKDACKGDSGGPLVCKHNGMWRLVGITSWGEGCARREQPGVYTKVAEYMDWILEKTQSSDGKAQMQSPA

B3: X115-G04 (antibody, V domains shown)
VL: DIQMTQSPSTLSASVGDRVTITCRASQSISSWLAWYQQKPGKAPKLLIYKASTLESGVPSRFSGSGSGTEFTLTISSLQPDDFATYYCQQYNTYWTFGQGTKVEIK
VH: EVQLLESGGGLVQPGGSLRLSCAASGFTFSHYIMMWVRQAPGKGLEWVSGIYSSGGITVYADSVKGRFTISRDNSKNTLYLQMNSLRAEDTAVYYCAYRRTGVPRRDEFDIWGQGTMVTVSS
- Ki: 0.6 nM

B5: X115-B07 (antibody, V domains shown)
VL: EIVLTQSPGTLSLSPGERATLSCRTSQFVNSNYLAWYQQKPGQAPRLLIYGASSRATGIPDRFSGSGSGTDFTLTISRLEPEDFAVYYCQQSSRTPWTFGQGTKVEIK
VH: EVQLLESGGGLVQPGGSLRLSCAASGFTFSHYLMTWVRQAPGKGLEWVSYISPSGGHTIYADSVKGRFTISRDNSKNTLYLQMNSLRAEDTAVYYCAMVGQGIRGRSRTSYFAQWGQGTLVTVSS
- Ki: 0.33 nM

B6: X115-D05 (antibody, V domains shown)
VL: B5 VL
VH: EVQLLESGGGLVQPGGSLRLSCAASGFTFSDYMMAWVRQAPGKGLEWVSSIVPSGGHTHYADSVKGRFTISRDNSKNTLYLQMNSLRAEDTAVYYCARVARGIAARSRTSYFDYWGQGTLVTVSS
- Ki: 0.25 nM

B7: X115-E09 (antibody, V domains shown)
VL: B5 VL
VH: B5 VH with M98R, G100A, R104A, G105A, Y111S, F112V, A113D
- Ki: 0.34 nM

B8: X115-H06 (antibody, V domains shown)
VL: B5 VL
VH: B5 VH with M98R, G100A, R104S, G105A, A113D, Q114Y
- Ki: 0.35 nM

Binders with a lower Ki, results first:

- Ki: 0.16 nM
B1: X115-A03 (antibody, V domains shown)
VL: B3 VL
VH: B3 VH with Y98W, T101I, E108S, I111M

- Ki: 0.18 nM
B2: X115-D01 (antibody, V domains shown)
VL: B3 VL
VH: B3 VH with H31I, I33S, M35H, G50S, S53P, G55R, I57M, V59W, V103I, E108A

- Ki: 0.089 nM
B4: X115-F02 (Fab, V domains shown)
VL: B3 VL
VH: B3 VH with T101I
